In paper doi:10.1101/2024.11.04.618112:

Target: His10-pA-Tn5 (recombinant protein A-Tn5 transposase with an N-terminal His10-tag) (Escherichia coli) (UniProt Q46731)
Assay: SEC

stoichiometry N: 2
Substance: His10-pA-Tn5 (recombinant protein A-Tn5 transposase with an N-terminal His10-tag) (from UniProt Q46731 1-476) (enzyme)
